Assay [1] addresses T1, Cyno GUCY2C ECD (his-tagged cynomolgus monkey GUCY2C protein extracellular domain fusion protein) (cynomolgus monkey, UniProt P25092 24-430 (human entry)).
T1 construct: also called monkey GUCY2C-his; monkey GUCY2C-His
T1 chain: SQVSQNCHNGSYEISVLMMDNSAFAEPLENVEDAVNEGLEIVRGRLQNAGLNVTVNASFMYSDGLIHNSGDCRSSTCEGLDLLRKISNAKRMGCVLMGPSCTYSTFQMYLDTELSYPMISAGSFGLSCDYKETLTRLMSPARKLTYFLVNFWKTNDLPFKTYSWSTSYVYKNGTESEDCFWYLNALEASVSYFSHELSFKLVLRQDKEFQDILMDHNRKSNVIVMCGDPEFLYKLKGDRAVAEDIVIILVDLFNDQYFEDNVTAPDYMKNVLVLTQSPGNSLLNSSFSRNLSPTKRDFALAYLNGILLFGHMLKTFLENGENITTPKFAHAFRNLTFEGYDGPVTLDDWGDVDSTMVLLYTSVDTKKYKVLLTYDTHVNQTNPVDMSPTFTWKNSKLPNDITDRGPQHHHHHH
Briefly: ELISA, plate coated with monkey GUCY2C-his, OD450. On the technique in general: In an ELISA, binding on a coated surface is turned into a signal by an enzyme label.

The target of assay [2] is T2, Human GUCY2C ECD (his-tagged human GUCY2C protein extracellular domain fusion protein) (human, UniProt P25092 24-430).
T2 construct: also called human GUCY2C-his; human GUCY2C-His
Nature of the assay: SPR Biacore, antibody on Protein A, antigen injected. As for the experimental part: The strength of antibody-antigen binding was assayed with a BIAcore 8K instrument using a Protein A capture method. First, Protein A was immobilized onto a CM4 chip (purchased from GE, BR-1005-34) using an amino coupling method. According to the instruction of the Amine Coupling Kit (purchased from GE, BR100633), NHS and EDC were mixed with HBS-EP+pH 7.4 as a mobile phase to activate the chip for about 600 s; the Protein A was diluted to 50 μg/mL with 10 mM sodium acetate (pH 4.5) and injected for 600 s, and finally, the remaining activated sites were blocked with ethanolamine. Then, the affinity of the antibody for the antigen was assayed using a multi-cycle kinetic method; in each cycle, first, the antibody to be tested was captured using the Protein A chip, and then a single concentration of antigen protein was injected. The association and dissociation processes of the antibody with the antigen protein were recorded, and finally, the chip was regenerated using Glycine pH 1.5, wherein the mobile phase was HBS-EP+(10 mM HEPES, 150 mM NaCl, 3 mM EDTA, 0.05% surfactant P20), the flow rate was 30 μL/min, the regeneration time was 30 s, and the assay temperature was 25° C. Finally, according to a 1:1 binding model, the data were analyzed, and the antibody-antigen binding kinetics parameters, including the association rate constant Ka, the dissociation rate constant Kd, the equilibrium dissociation constant KD, and the maximum binding signal Rmax, were fitted.
After the finally obtained various humanized antibodies were expressed and purified, the affinities of the humanized antibodies for the human and monkey GUCY2C proteins were separately assayed according to the method in Example 4.6.

Assay [3] concerns the target T2, Human GUCY2C ECD (his-tagged human …). Nature of the assay: ELISA, plate coated with human GUCY2C-his, OD450. How it is done:
To assay the binding activity of the humanized antibodies to human GUCY2C-his protein, a human GUCY2C-his protein was diluted with PBS to a final concentration of 2 μg/mL and then added to a 96-well ELISA plate at 50 μL/well. The plate was sealed with a plastic film and incubated at 4° C. overnight. The next day, the plate was washed 2 times with PBST, and a blocking buffer [PBS+2% (w/w) BSA] was added for blocking at room temperature for 2 h. The blocking buffer was discarded, and the plate was washed 2 times with PBST. An antibody to be tested or a control antibody diluted in a 1:3 gradient from a starting concentration of 100 nM was added at 50 μL/well. After incubation at 37° C. for 1 h, the plate was washed 3 times with PBST. A horseradish peroxidase (HRP)—labeled secondary antibody (purchased from Merck, Cat. No. AP113P) was added for incubation at 37° C. for 1 h, and the plate was washed 5 times with PBST. A TMB substrate was added at 50 µL/well for incubation at room temperature for 5-10 min, and then a stop solution (1.0 M HCl) was added at 50 μL/well. OD450 nm values were read using an ELISA plate reader (Multimode Plate Reader, EnSight, purchased from Perkin Elmer).

T2 sequence (P25092 other isoform, or with tags, fused parts or gaps): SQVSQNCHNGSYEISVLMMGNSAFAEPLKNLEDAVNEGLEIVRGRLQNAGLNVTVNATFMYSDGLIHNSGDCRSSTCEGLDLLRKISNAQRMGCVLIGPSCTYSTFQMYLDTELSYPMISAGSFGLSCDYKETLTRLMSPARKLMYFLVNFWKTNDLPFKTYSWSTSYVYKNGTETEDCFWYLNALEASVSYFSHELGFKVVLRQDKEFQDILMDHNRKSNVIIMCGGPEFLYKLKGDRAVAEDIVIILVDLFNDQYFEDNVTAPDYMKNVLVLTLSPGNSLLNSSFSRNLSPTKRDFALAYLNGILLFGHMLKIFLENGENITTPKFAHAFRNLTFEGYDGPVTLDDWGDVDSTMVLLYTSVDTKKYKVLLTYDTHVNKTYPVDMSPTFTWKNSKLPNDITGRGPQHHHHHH

B1: PF1608-hIgG1 (antibody, V domains shown)
VH: EVQLVESGGGLVQPGGSLRLSCAASGFTFSSYWMHWVRQAPGKGLEWIGEIKPSNELTNVHEKFKDRFTISVDKAKNSAYLQMNSLRAEDTAVYYCTRTITTTEGYWFFDVWGQGTLVTVSS
VL: DIQLTQSPSSLSASVGDRVTITCRASESVDYYGSSLLQWYQQKPGKAPKLLIYAASKLASGVPSRFSGSGSGTDFTLTISSLQPEDFATYYCQQTRKAYTFGQGTKLEIKR
notes: also called PF1608-hlgG1; positive control antibody
Turning to B1, the EC50 (read off the curve) (commonly the midpoint of the concentration-response curve) in assay [1] is ~0.05 nM. In addition, in assay [2], the Kd (in general, the free concentration of one partner at which half of the binding sites on the other are occupied at equilibrium, for simple one-to-one binding) was 1.63 nM; the off-rate constant (koff) (in general, a measure of how fast the partners let go of each other) was found to be 0.000258 s⁻¹; the kon (usually the second-order rate constant of association) turned out to be 158000 M⁻¹ s⁻¹. The “EC50 (read off the curve)” value in assay [3] is ~0.05 nM.

B2: 5F9-hIgG1 (antibody, V domains shown)
VH: QVQLQQWGAGLLKPSETLSLTCAVFGGSFSGYYWSWIRQPPGKGLEWIGEINHRGNTNDNPSLKSRVTISVDTSKNQFALKLSSVTAADTAVYYCARERGYTYGNFDHWGQGTLVTVSS
VL: EIVMTQSPATLSVSPGERATLSCRASQSVSRNLAWYQQKPGQAPRLLIYGASTRATGIPARFSGSGSGTEFTLTIGSLQSEDFAVYYCQQYKTWPRTFGQGTNVEIKR
notes: also called positive control antibody
Turning to B2, in assay [1], the “EC50 (read off the curve)” value is ~0.03 nM. In assay [2], this molecule yielded a Kd of 4.05 nM, a koff of 0.000565 s⁻¹ and a kon of 140000 M⁻¹ s⁻¹. For the same molecule, the concentration for a half-maximal effect (EC50 (read off the curve)) in assay [3] is ~0.04 nM.

(Values after US20250075006A1 (SHANDONG SIMCERE BIOPHARMACEUTICAL, published 2025).)
